The values that follow come from patent publication US20120115742A1, “METHODS FOR IDENTIFICATION” (Cambridge Enterprise Limited, priority 2009, published 2012).

The target in assay [1] is type 2 somatostatin receptor (sstr2), human (human) (UniProt P30874). Put plainly: cell-based or functional assay.
The target in assay [2] is type 2 somatostatin receptor (sstr2), rat (rat) (UniProt P30680). Put plainly: cell-based or functional assay.
For the next assay, the system named is fetal rat pituicytes. Put plainly: Rat pituicyte GH suppression assay. In kind it is cell-based. To be noted: Table 3; suppression compared to vehicle. An excerpt:
(§1) Two different assays for “classical” sstr2 functions were adopted: (1) cultured foetal rat pituitary cells secreted growth hormone which is inhibited by sstr2 agonists in a dose-dependent fashion and (2) selected glucose-sensitive sub-clones of the human Panc-1 cell line secrete insulin which is inhibited by sstr2 agonists in a dose-dependent fashion.
Methods: Cultures of fetal rat pituicytes were established exactly as previously described (Murray et al. (2004) J. Clin. Endocrinol. Metab. 89:3027-32) by enzymatic dispersion. After 48 hrs in low glucose DMEM plus 10% FCS, cells in 48 well plates (5×10^4 cells per well) were washed for 4 hrs in serum-free DMEM and then incubated with test agents at various concentrations for a further 24 hrs in serum-free DMEM. At the end of this period, the conditioned medium was harvested, any cell debris removed by centrifugation and assayed for […] using a commercially available ELISA (Linco; cat# EZRMGH-45K) in accordance with the manufacturer's instructions.
(§2) Results were reported as the mean SD, expressed as the fold change from cells in the presence of vehicle only.

Another assay concerns Panc-2H4 cells. As to the kind of experiment: Human Panc-2H4 insulin suppression assay. In kind it is cell-based. Conditions: for EC50: 0.01-1,000 nM, 1% DMSO, read-out: Panc-2H4 insulin suppression assay (“classical” target) ED50.
Text: as §1
Glucose-sensitive sub-clones of the human Panc-1, a cell line derived from a pleiomorphic epithelioid carcinoma of the exocrine pancreas, were obtained essentially as described by Hamil et al. (2008) Biomed. Sci. Instrum. 44:441-6. Briefly, Panc-1 cells were subcultured in 24 well plates, and the medium was supplemented with an additional 5% glucose. […] The resulting sub-lines were then tested for glucose sensitivity by preparing wells of a 96-well plate (5×10^4 cells per well) which were then exposed to cultured medium containing a range of glucose concentrations (low glucose DMEM, DMEM, DMEM+1% glucose, DMEM+2.5% glucose and DMEM+5% glucose). After 24 hrs incubation, the conditioned medium was collected and assayed for insulin secretion by ELISA (Linco; cat# EZHI-14K) in accordance with the manufacturer's instructions. […] Further 96 well plates were prepared using Panc-2H4 (5×10^4 cells per well) in DMEM. After 24 hrs, the medium was switched to DMEM+5% glucose containing various test agents at various concentrations (triplicate wells per condition). After a further 24 hrs, the conditioned medium was harvested and the concentration of insulin was determined by ELISA as described above.
as §2

Another assay relates to THP-1 cells. Put plainly: MCP-1 induced THP-1 cell migration (Transwell/ChemoTx). To be noted: for RATIO: Table 4, migration ED50 versus insulin ED50.

A value given as a limit tells only on which side of the number the result lay.

type 2 somatostatin receptor (sstr2), human (human), sequence (P30874 whole entry): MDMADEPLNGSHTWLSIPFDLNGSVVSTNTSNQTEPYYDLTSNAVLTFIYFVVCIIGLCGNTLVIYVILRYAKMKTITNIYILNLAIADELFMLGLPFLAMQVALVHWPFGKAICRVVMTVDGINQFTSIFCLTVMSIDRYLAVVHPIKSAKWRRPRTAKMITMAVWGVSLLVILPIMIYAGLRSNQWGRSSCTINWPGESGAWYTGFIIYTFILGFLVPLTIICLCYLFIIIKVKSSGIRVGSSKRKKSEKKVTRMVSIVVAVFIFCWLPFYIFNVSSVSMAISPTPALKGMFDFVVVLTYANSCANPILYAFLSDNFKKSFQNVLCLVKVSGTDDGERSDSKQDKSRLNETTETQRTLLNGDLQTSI
type 2 somatostatin receptor (sstr2), rat (rat), sequence (P30680 whole entry): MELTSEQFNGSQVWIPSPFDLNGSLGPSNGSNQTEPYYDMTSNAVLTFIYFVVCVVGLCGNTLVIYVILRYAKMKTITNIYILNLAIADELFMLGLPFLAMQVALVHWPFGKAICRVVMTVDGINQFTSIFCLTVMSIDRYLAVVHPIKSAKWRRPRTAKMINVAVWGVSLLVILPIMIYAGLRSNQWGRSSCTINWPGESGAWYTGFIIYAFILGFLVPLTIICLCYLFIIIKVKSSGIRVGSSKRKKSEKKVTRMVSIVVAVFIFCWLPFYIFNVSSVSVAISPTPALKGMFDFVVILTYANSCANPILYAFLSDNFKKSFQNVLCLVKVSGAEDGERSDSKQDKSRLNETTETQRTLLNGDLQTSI
Procedure for THP-1 cells: Leukocyte migration was measured using the 96-well format micro Transwell® assay system from Neuroprobe (Gaithersburg, Md., USA). In principle, this assay consists of two chambers separated by a porous membrane. The chemoattractant is placed in the lower compartment and the cells are placed in the upper compartment.
First, the cell suspension to be placed in the upper compartment was prepared. The THP-1 cells were pelleted by centrifugation (770×g; 4 mins) and washed with Geys Balanced Salt Solution with 1 mg/ml BSA (GBSS+BSA). This wash was then repeated, and the cells re-pelleted before being resuspended in a small volume of GBSS+BSA for counting, for example using a standard haemocytometer.
This ensured that there were 100,000 THP-1 cells in each 25 μl of the solution to be placed in the upper chamber of the plate.
To the third pot, GBSS+BSA plus vehicle as appropriate was added so that the volumes in three pots are equal, acting as a control.
Next, the chemoattractant solution to be placed in the lower compartment was prepared. […] This solution was divided into three pots, as for the cell suspension. To one pot, the BSCI was added to the same final concentration as was added to the cell suspension, in the second pot the BSCI and the sstr2 antagonist were both added at the same concentration as previously added to the cell suspension, while to the remaining pot GBSS+BSA plus vehicle as appropriate was added so that the volumes in the three pots were equal.
Once the chemoattractant solutions for the lower wells and cell solutions for the upper chambers were prepared, the migration chamber was assembled. 29 μl of the appropriate chemoattractant solution was placed into the lower well of the chamber. Assays were performed with at least triplicate determinations of each condition. Once all the lower chambers were filled, the porous membrane was applied to the chamber in accordance with the manufacturer's instructions. Finally, 25 μl of the appropriate cell solution was applied to each upper chamber. A plastic lid was placed over the entire apparatus to prevent evaporation.
The assembled chamber was incubated at 37° C., 5% CO2, for 2 hours.
At the end of the incubation, the liquid cell suspension was gently removed from the upper chamber, 20 μl of ice-cold 20 mM EDTA in PBS was added to the upper chamber, and the apparatus was incubated at 4° C. for 15 mins. This procedure caused any cells adhering to the underside of the membrane to fall into the lower chamber.
After this incubation the filter was carefully flushed with GBSS+BSA to wash off the EDTA, and then the filter was removed.
The number of cells migrated into the lower chamber under each condition can then be determined by a number of methods, including direct counting, labelling with fluorescent or radioactive markers or through the use of a vital dye. Typically, we utilised the vital dye MTT. 3 μl of stock MTT solution were added to each well, and then the plate was incubated at 37° C. for 1-2 hours during which time dehydrogenase enzymes within the cells converted the soluble MTT to an insoluble blue formazan product that could be quantified spectrophotometrically.
In parallel, an 8-point standard curve was set up. Starting with the number of cells added to each upper chamber (100,000) and going down in 2-fold serial dilutions in GBSS+BSA, the cells were added to a plate in 25 with 3 μl of MTT stock solution added. The standard curve plate was incubated along side the migration plate. At the end of this incubation, the liquid was carefully removed from the lower chambers, taking care not to disturb the precipitated formazan product.
The MCP-1 stimulated migration was determined by subtracting the average number of cells that reached the lower compartment in wells where no MCP-1 was added from the average number of cells that reached the lower compartment where MCP-1 was present at 25 ng/ml.

In assay [1], “somatostatin-28 (from UniProt P61278 89-116) (peptide)” displayed a Human Panc-2H4 insulin suppression assay ED50 of 0.14 nM, a Human Panc-2H4 insulin suppression assay Max effect of 51%, a Human chemokine-induced THP-1 migration assay ED50 of 0.9 nM and a Human chemokine-induced THP-1 migration assay Max effect of 38%. In assay [2], this molecule came in with a Rat chemokine-induced PBMC migration assay ED50 of 1.2 nM, a Rat chemokine-induced PBMC migration assay Max effect of 44%, a Rat pituicyte GH suppression assay ED50 of 0.17 nM and a Rat pituicyte GH suppression assay Max effect of 73%.

With `C[C@@H](c1c[nH]c2ccccc12)[C@@H](NC(=O)N1CCC(n2c(=O)[nH]c3ccccc32)CC1)C(=O)NC[C@@H]1CCC[C@H](CN)C1` [L-779,976], the “Rat pituicyte GH suppression assay Max effect” value with fetal rat pituicytes turned out to be 55%. Moreover, in the assay with Panc-2H4 cells (Table 3, suppression compared to vehicle), the “Human Panc-2H4 insulin suppression assay Max effect” value was found to be 40%. The “Panc-2H4 insulin suppression assay Max Effect” value in the assay on Panc-2H4 cells (Table 4) and in the assay on Panc-2H4 cells (Table 5) was 40% throughout. In addition, the ““Classical”:“BSCI” potency ratio, Human” value with THP-1 cells (THP-1 migration ED50 versus Panc-2H4 insulin ED50) came out at 27.

Consider `NCC1CCCC(CNC(=O)C(Cc2ccccc2)NC(=O)N2CCC(n3c(=O)[nH]c4ccccc43)CC2)C1` (stereo not shown) [F], for which, in the assay with Panc-2H4 cells (Table 4), the “Panc-2H4 insulin suppression assay Max Effect” value is reported as under 10% and the EC50 was over 1000 nM.

In the case of `CC(c1c[nH]c2ccccc12)C(NC(=O)NC1CCCNC1=O)C(=O)NCC1CCCC(CN)C1` (stereo not shown) [Compound C], in the assay on Panc-2H4 cells (Table 4), the “Panc-2H4 insulin suppression assay Max Effect” value stood at 56%. Moreover, in the assay on THP-1 cells, the RATIO turned out to be 0.02.

Take BIM58187 (peptide): in assay [1], the Human Panc-2H4 insulin suppression assay ED50 was over 1000 nM, the Human Panc-2H4 insulin suppression assay Max effect was under 10%, the Human chemokine-induced THP-1 migration assay ED50 turned out to be 6.9 nM and the Human chemokine-induced THP-1 migration assay Max effect turned out to be 100%. In assay [2], this molecule returned a Rat chemokine-induced PBMC migration assay ED50 of 15 nM, a Rat chemokine-induced PBMC migration assay Max effect of 100%, a Rat pituicyte GH suppression assay ED50 of 550 nM and a Rat pituicyte GH suppression assay Max effect of 42%.

Consider “SST-28: alternatively processed sst28 natural ligand”, for which the “Max effect (maximum inhibition)” value with THP-1 cells (Table 2, at the highest dose tested (1-10 μM)) is reported as 40-60%.

Turning to `CC(=O)NC(CC(N)=O)C(=O)NC(C(=O)NCC1CCCC(CN)C1)C(C)c1c[nH]c2ccccc12` (mixture of isomers) [D], the “Panc-2H4 insulin suppression assay Max Effect” value with Panc-2H4 cells (Table 4) came out at 37%.

On to `CC(c1c[nH]c2ccccc12)C(NC(=O)N1CC(=O)NC(=O)C1)C(=O)NCC1CCCC(CN)C1` (stereo not shown) [Compound B], for which the “Panc-2H4 insulin suppression assay Max Effect” value in the assay with Panc-2H4 cells (Table 4) is on record as 52%. In addition, the RATIO in the assay with THP-1 cells was determined as 1.3.

With `CC(=O)NC(=O)C(NC(=O)N1CCC(n2c(=O)[nH]c3ccccc32)CC1)C(C)c1c[nH]c2ccccc12` (stereo not shown) [E], in the assay on Panc-2H4 cells (Table 4), the “Panc-2H4 insulin suppression assay Max Effect” value is under 10% and the EC50 was over 1000 nM.
